# Measured values from patent publication US20240116985A1, “STAPLED PEPTIDES AND METHODS THEREOF” (priority 2020, published 2024).
# Starred links: 1 amine or outer side, 2 acyl side, 3 side chain; linkers in the order of their positions; H or OH if unused. Positions of bridges follow the written chain, without caps; N, C: chain ends. Non-standard residues stand in square brackets, D forms with d. Primed or numbered codes have the meaning given here. PyrS2″ = (S)-3-amino-1-((pent-4-en-1-yloxy)carbonyl)pyrrolidine-3-carboxylic acid (stapling residue), C=CCCCOC(=O)N1CC[C@@](N[*:1])(C(=O)[*:2])C1; (bismethoxyethylamine)GlnR = [bismethoxyethylamine]GlnR, N5,N5-bis(2-methoxyethyl)-L-glutamine, COCCN(CCOC)C(=O)CC[C@H](N[*:1])C(=O)[*:2]; B5(4) = 2,2-bis(4-pentenyl)glycine = 2-amino-2-(pent-4-en-1-yl)hept-6-enoic acid (stitching residue), C=CCCCC(CCCC=C)(N[*:1])C(=O)[*:2]; B5(5) = 2,2-bis(4-pentenyl)glycine, 2-amino-2-(pent-4-en-1-yl)hept-6-enoic acid (stitching residue), C=CCCCC(CCCC=C)(N[*:1])C(=O)[*:2]; 5F3Me3COOHF = (S)-3-(2-amino-2-carboxyethyl)-5-(trifluoromethyl)benzoic acid, O=C([C@H](Cc1cc(C(=O)[*:3])cc(C(F)(F)F)c1)N[*:1])[*:2]; TfeGA = (S)-2-amino-3-((carboxymethyl)(2,2,2-trifluoroethyl)amino)propanoic acid, O=C([C@H](CN(CC(=O)[*:3])CC(F)(F)F)N[*:1])[*:2]; PyrS2 = (S)-3-amino-1-((pent-4-en-1-yloxy)carbonyl)pyrrolidine-3-carboxylic acid, C=CCCCOC(=O)N1CC[C@@](N[*:1])(C(=O)[*:2])C1; B5(12) = 2-amino-2-(pent-4-en-1-yl)hept-6-enoic acid (two olefin side chains), C=CCCCC(CCCC=C)(N[*:1])C(=O)[*:2]; 4F3COOHF = (S)-5-(2-amino-2-carboxyethyl)-2-fluorobenzoic acid, O=C([C@H](Cc1ccc(F)c(C(=O)[*:3])c1)N[*:1])[*:2]; B5(25) = 2-amino-2-(pent-4-en-1-yl)hept-6-enoic acid (stitching residue), C=CCCCC(CCCC=C)(N[*:1])C(=O)[*:2]; PyrS2(5) = (S)-3-amino-1-((alkenyloxy)carbonyl)pyrrolidine-3-carboxylic acid, carbamate stapling residue; (CyPr)‑3SF = (S)-2-amino-3-(3-cyclopropylphenyl)propanoic acid, O=C([C@H](Cc1cccc(C2CC2)c1)N[*:1])[*:2]; B5(3) = 2,2-bis(4-pentenyl)glycine (stitching residue), C=CCCCC(CCCC=C)(N[*:1])C(=O)[*:2]; B5 = 2-amino-2-(pent-4-en-1-yl)hept-6-enoic acid, C=CCCCC(CCCC=C)(N[*:1])C(=O)[*:2]; Phe(3-Ph) = N[C@@H](Cc1cccc(-c2ccccc2)c1)C(=O)O; Phe(3-COOH) = N[C@@H](Cc1cccc(C(=O)O)c1)C(=O)O; 2F3MeF = Cc1cccc(C[C@H](N[*:1])C(=O)[*:2])c1F; Phe(2-CF3) = N[C@@H](Cc1ccccc1C(F)(F)F)C(=O)O; Ala(4-thiazolyl) = N[C@@H](Cc1cscn1)C(=O)O; Phe(4-Cl) = N[C@@H](Cc1ccc(Cl)cc1)C(=O)O; Phe(2-Cl) = N[C@@H](Cc1ccccc1Cl)C(=O)O; dαMeGly(allyl) = C=CC[C@@](C)(N)C(=O)O; Bta = N[C@@H](Cc1csc2ccccc12)C(=O)O; Lys(iPr) = CC(C)NCCCC[C@H](N)C(=O)O; αAllylPro = C=CC[C@@]1(C(=O)O)CCCN1; tBuAla = CC(C)(C)C[C@H](N)C(=O)O; 2Thi = N[C@@H](Cc1cccs1)C(=O)O; 3Thi = N[C@@H](Cc1ccsc1)C(=O)O; Cha = N[C@@H](CC1CCCCC1)C(=O)O; Cit = NC(=O)NCCC[C@H](N)C(=O)O; hSer = N[C@@H](CCO)C(=O)O; 34ClF = not defined here; Nle = CCCC[C@H](N)C(=O)O; Abu = CC[C@H](N)C(=O)O; Aib = CC(C)(N)C(=O)O
# B1: I-1694 (peptide)
# peptide: Ac-[αAllylPro]D[tBuAla][B5]D[TfeGA]AGFT[PyrS2][Phe(2-Cl)][Bta]Q-NH2
# modifications: staple 1-4, 4-11
# B2: I-1693 (peptide)
# peptide: Ac-[αAllylPro]D[tBuAla][B5]D[TfeGA][Aib]AFT[PyrS2][Phe(2-Cl)][Bta]Q-NH2
# modifications: staple 1-4, 4-11
# B3: I-1692 (peptide)
# peptide: Ac-[αAllylPro]D[tBuAla][B5]D[TfeGA][Nle]AFT[PyrS2][Phe(2-Cl)][Bta]Q-NH2
# modifications: staple 1-4, 4-11
# B4: I-1695 (peptide)
# peptide: Ac-[αAllylPro]D[tBuAla][B5]D[TfeGA][Nle]GFT[PyrS2][Phe(2-Cl)][Bta]Q-NH2
# modifications: staple 1-4, 4-11
# B5: I-1689 (peptide)
# peptide: Ac-[αAllylPro]D[tBuAla][B5]D[Phe(3-COOH)][Aib]GFL[PyrS2][Phe(2-Cl)][Bta]Q-NH2
# modifications: staple 1-4, 4-11
# B6: I-1688 (peptide)
# peptide: Ac-[αAllylPro]D[tBuAla][B5]D[Phe(3-COOH)][Nle]GFL[PyrS2][Phe(2-Cl)][Bta]Q-NH2
# modifications: staple 1-4, 4-11
# B7: I-1687 (peptide)
# peptide: Ac-[αAllylPro]D[tBuAla][B5(4)]D[Phe(3-COOH)]AGFL[PyrS2(5)][Phe(2-Cl)][Bta]Q-NH2
# modifications: staple 1-4, 4-11
# B8: I-1696 (peptide)
# peptide: Ac-[αAllylPro]D[tBuAla][B5]D[TfeGA][Aib]GFT[PyrS2][Phe(2-Cl)][Bta]Q-NH2
# modifications: staple 1-4, 4-11
# B9: I-2075 (peptide)
# peptide: Ac-[αAllylPro]N[Cha][B5(5)]DQ[Lys(iPr)]AFN[PyrS2″][2Thi][Bta][hSer]-NH2
# modifications: staple 1-4, 4-11
# B10: I-2095 (peptide)
# peptide: Ac-[αAllylPro]D[tBuAla][B5(4)]D[Phe(3-COOH)]AAFF[PyrS2″][2F3MeF][Bta][dA]-NH2
# modifications: staple 1-4, 4-11
# B11: I-2073 (peptide)
# peptide: Ac-[αAllylPro]N[Cha][B5(5)]DQ[Lys(iPr)]AFN[PyrS2″]F[Bta]-NH2
# modifications: staple 1-4, 4-11
# B12: I-2071 (peptide)
# peptide: Ac-[αAllylPro]N[Cha][B5(5)]DQ[Lys(iPr)]AFN[PyrS2″][Ala(4-thiazolyl)][Bta][hSer]-NH2
# modifications: staple 1-4, 4-11
# B13: I-2093 (peptide)
# peptide: Ac-[αAllylPro]D[tBuAla][B5(4)]D[Phe(3-COOH)]AAFF[PyrS2″][Phe(2-CF3)][Bta][dQ]-NH2
# modifications: staple 1-4, 4-11
# B14: I-2091 (peptide)
# peptide: Ac-[αAllylPro]D[tBuAla][B5(4)]D[Phe(3-COOH)]AAFL[PyrS2″][Phe(2-CF3)][Bta][dA]-NH2
# modifications: staple 1-4, 4-11
# B15: I-2074 (peptide)
# peptide: Ac-[αAllylPro]N[Cha][B5(5)]DQ[Lys(iPr)]AFN[PyrS2″][3Thi][Bta][hSer]-NH2
# modifications: staple 1-4, 4-11
# B16: I-2072 (peptide)
# peptide: Ac-[αAllylPro]N[Cha][B5(5)]DQ[Lys(iPr)]A[Ala(4-thiazolyl)]N[PyrS2″]F[Bta][hSer]-NH2
# modifications: staple 1-4, 4-11
# B17: I-2220 (peptide)
# peptide: Ac-[αAllylPro]D[tBuAla][B5(3)]D[Phe(3-COOH)]AAFL[PyrS2″][3Thi][Phe(4-Cl)]Q-NH2
# modifications: staple 1-4, 4-11
# B18: I-2214 (peptide)
# peptide: Ac-[αAllylPro]D[tBuAla][B5(3)]D[Phe(3-COOH)]AAFL[PyrS2″][Phe(3-Ph)]FQ-NH2
# modifications: staple 1-4, 4-11
# B19: I-2211 (peptide)
# peptide: Ac-[αAllylPro]D[tBuAla][B5(5)]D[5F3Me3COOHF]QAFL[PyrS2][3Thi][Bta]A-NH2
# modifications: staple 1-4, 4-11
# B20: I-2206 (peptide)
# peptide: Ac-[αAllylPro]D[tBuAla][B5(5)]D[4F3COOHF]QAFL[PyrS2][3Thi][Bta]A-NH2
# modifications: staple 1-4, 4-11
# B21: I-2215 (peptide)
# peptide: Ac-[αAllylPro]D[tBuAla][B5(3)]D[Phe(3-COOH)]AAFL[PyrS2″][(CyPr)‑3SF]FQ-NH2
# modifications: staple 1-4, 4-11
# B22: I-2218 (peptide)
# peptide: Ac-[αAllylPro]D[tBuAla][B5(3)]D[Phe(3-COOH)]AAFL[PyrS2″][2F3MeF][34ClF]S-NH2
# modifications: staple 1-4, 4-11; reading uncertain
# B23: I-2216 (peptide)
# peptide: Ac-[αAllylPro]D[tBuAla][B5(3)]D[Phe(3-COOH)]AAFL[PyrS2″][3Thi][34ClF]Q-NH2
# modifications: staple 1-4, 4-11; reading uncertain
# B24: I-2219 (peptide)
# peptide: Ac-[αAllylPro]D[tBuAla][B5(3)]D[Phe(3-COOH)]QAFL[PyrS2″][2F3MeF][34ClF]A-NH2
# modifications: staple 1-4, 4-11; reading uncertain
# B25: I-860 (peptide)
# peptide: Ac-[αAllylPro]D[tBuAla][B5(12)]DTAAFN[PyrS2][3Thi][Bta]-NH2
# modifications: staple 1-4, 4-11; also: later eluting HPLC peak (staple isomer)
# B26: I-861 (peptide)
# peptide: Ac-[αAllylPro]D[tBuAla][B5(12)]D[Cit]AAFN[PyrS2][3Thi][Bta]-NH2
# modifications: staple 1-4, 4-11
# B27: I-862 (peptide)
# peptide: Ac-[αAllylPro]D[tBuAla][B5(12)]DLAAFN[PyrS2][3Thi][Bta]-NH2
# modifications: staple 1-4, 4-11
# B28: I-2015 (peptide)
# peptide: Ac-[αAllylPro]D[tBuAla][B5(4)]NTAAYN[PyrS2″][3Thi][Bta]Q-NH2
# modifications: staple 1-4, 4-11; not fully specified; printed as Ac-PL3-Asp-Npg-B5-Asn-Thr-Ala-Ala-Tyr-Asn-PyrS2-3Thi-BztA-Gln-NH2
# B29: I-2016 (peptide)
# peptide: Ac-[αAllylPro]D[tBuAla][B5(4)]NTAAYN[PyrS2″][3Thi][Bta]Q-NH2
# modifications: staple 1-4, 4-11; not fully specified; printed as Ac-PL3-Asp-Npg-B5-Asn-Thr-Ala-Ala-Tyr-Asn-PyrS2-3Thi-BztA-Gln-NH2
# B30: I-2025 (peptide)
# peptide: Ac-[αAllylPro]D[tBuAla][B5(5)]D[Phe(3-COOH)]AAFA[PyrS2″][Phe(2-Cl)][Bta]F-NH2
# modifications: staple 1-4, 4-11
# B31: I-2566 (peptide)
# peptide: Ac-P[dαMeGly(allyl)]D[tBuAla][B5(25)]D[Phe(3-COOH)]AAFL[PyrS2″][Phe(2-CF3)][Bta]Q-NH2
# modifications: staple 5-12, 2-5
# B32: I-2559 (peptide)
# peptide: Ac-[αAllylPro]D[tBuAla][B5(4)]D[Phe(3-COOH)][Aib]AF[Abu][PyrS2″][3Thi][Bta][(bismethoxyethylamine)GlnR]-NH2
# modifications: staple 1-4, 4-11
# B33: I-2554 (peptide)
# peptide: Ac-[αAllylPro]D[tBuAla][B5(4)]D[Phe(3-COOH)][Aib]AF[Nle][PyrS2″][3Thi][Bta][(bismethoxyethylamine)GlnR]-NH2
# modifications: staple 1-4, 4-11
# Target: Bcat-Halo (beta-catenin HaloTag construct expressed in HEK293 cells) (UniProt P35222)
# Experiment: NanoBRET target engagement in HEK293 cells, absolute IC50; competitor TCF4-Luc
# Sequence of Bcat-Halo (beta-catenin HaloTag construct expressed in HEK293 cells) (P35222 whole entry): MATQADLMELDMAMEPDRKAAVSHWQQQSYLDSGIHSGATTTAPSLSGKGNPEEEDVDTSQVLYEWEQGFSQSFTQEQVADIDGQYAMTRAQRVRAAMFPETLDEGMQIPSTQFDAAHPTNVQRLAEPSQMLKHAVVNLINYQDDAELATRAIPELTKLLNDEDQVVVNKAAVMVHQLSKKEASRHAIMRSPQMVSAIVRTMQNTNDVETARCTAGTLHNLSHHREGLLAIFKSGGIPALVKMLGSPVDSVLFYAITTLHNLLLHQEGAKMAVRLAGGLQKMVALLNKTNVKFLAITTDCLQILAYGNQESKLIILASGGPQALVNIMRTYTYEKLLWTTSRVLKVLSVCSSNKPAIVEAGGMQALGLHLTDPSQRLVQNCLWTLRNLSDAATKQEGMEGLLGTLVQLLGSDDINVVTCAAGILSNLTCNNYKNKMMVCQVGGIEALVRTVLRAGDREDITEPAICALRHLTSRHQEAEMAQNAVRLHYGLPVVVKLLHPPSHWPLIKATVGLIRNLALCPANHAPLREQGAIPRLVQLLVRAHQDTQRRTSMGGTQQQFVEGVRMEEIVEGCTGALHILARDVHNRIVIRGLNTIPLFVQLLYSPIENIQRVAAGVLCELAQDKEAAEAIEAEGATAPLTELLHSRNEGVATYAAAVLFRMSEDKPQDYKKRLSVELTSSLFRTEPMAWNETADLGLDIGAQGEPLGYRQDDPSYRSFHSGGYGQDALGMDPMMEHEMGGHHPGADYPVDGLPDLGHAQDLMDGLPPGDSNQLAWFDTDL
row,IC50 [µM],Binder
1,43.6,B1
2,4.6,B2
3,10.4,B3
4,> 20,B4
5,12.5,B5
6,21.5,B6
7,18.6,B7
8,35.5,B8

# Target: full-length beta-Catenin (Uniprot ID P35222) (Homo sapiens (Human)) (UniProt P35222)
# Experiment: fluorescence polarization competition; 10 nM full-length beta-catenin + 10 nM 5FAM-TCF4(10-53), peptide titrated
# Target sequence in this assay (P35222 whole entry, the tested form may be a part, one chain of several): as the sequence (P35222 whole entry) above
row,IC50 [nM],Binder
1,2330,B9
2,78,B10
3,398,B11
4,592,B12
5,43,B13
6,49,B14
7,789,B15
8,8260,B16

# Target: full-length beta-Catenin (Uniprot ID P35222) (Homo sapiens (Human)) (UniProt P35222)
# Experiment: fluorescence polarization competition against 5FAM-TCF4 10-53
# Target sequence in this assay (P35222 whole entry, the tested form may be a part, one chain of several): as the sequence (P35222 whole entry) above
row,IC50 [nM],Binder
1,12,B17
2,1860,B18
3,23,B19
4,7,B20
5,1540,B21
6,34,B22
7,7,B23
8,21,B24

# Target: full-length beta-Catenin (Uniprot ID P35222) (Homo sapiens (Human)) (UniProt P35222)
# Experiment: FP competition vs 5FAM-TCF4(10-53), full-length beta-catenin
# Target sequence in this assay (P35222 2-781 limits assumed): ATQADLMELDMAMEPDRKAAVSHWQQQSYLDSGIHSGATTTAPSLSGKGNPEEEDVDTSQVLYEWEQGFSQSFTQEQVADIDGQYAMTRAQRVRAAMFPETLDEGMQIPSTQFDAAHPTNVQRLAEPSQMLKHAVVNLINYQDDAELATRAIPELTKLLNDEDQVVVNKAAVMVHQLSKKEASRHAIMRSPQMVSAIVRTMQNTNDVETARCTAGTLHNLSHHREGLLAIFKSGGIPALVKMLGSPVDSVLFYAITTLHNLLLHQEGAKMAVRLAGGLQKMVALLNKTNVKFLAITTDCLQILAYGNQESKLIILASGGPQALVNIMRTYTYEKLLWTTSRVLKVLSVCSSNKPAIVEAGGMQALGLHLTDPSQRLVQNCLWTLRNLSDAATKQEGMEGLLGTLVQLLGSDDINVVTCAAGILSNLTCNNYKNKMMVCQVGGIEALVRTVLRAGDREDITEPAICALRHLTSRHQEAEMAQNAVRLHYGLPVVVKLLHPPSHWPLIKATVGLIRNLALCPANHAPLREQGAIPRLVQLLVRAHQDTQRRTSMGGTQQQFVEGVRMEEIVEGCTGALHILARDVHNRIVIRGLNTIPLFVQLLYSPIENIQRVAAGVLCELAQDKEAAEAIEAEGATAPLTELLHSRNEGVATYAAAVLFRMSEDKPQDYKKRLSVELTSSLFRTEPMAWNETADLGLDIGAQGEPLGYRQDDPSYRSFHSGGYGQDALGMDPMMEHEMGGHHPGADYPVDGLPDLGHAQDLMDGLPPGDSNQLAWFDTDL
row,IC50 [nM],Binder
1,61,B25
2,40,B26
3,123,B27

# Target: full-length beta-Catenin (Uniprot ID P35222) (Homo sapiens (Human)) (UniProt P35222)
# Experiment: fluorescence polarization competition; 10 nM full-length beta-catenin with 10 nM 5FAM-TCF4 (residues 10-53) probe as competitor
# Target sequence in this assay (P35222 2-781 limits assumed): as above
row,EC50 [nM],Binder
1,61,B25
2,40,B26
3,123,B27

# Target: full-length beta-Catenin (Uniprot ID P35222) (Homo sapiens (Human)) (UniProt P35222)
# Experiment: FP competition; full-length beta-catenin + 5FAM-TCF4(10-53) probe
# Target sequence in this assay (P35222 whole entry, the tested form may be a part, one chain of several): as the sequence (P35222 whole entry) above
row,IC50 [nM],Binder
1,522,B28
2,703,B29
3,109,B30

# Target: full-length beta-Catenin (Uniprot ID P35222) (Homo sapiens (Human)) (UniProt P35222)
# Experiment: fluorescence polarization competition; competitor 5FAM-TCF4 10-53
# Target sequence in this assay (P35222 whole entry, the tested form may be a part, one chain of several): as the sequence (P35222 whole entry) above
row,IC50 [nM],Binder
1,57,B1
2,10,B2
3,17,B3
4,93,B4
5,25.5,B5
6,59,B6
7,42,B7
8,32,B8

# Target: full-length beta-Catenin (Uniprot ID P35222) (Homo sapiens (Human)) (UniProt P35222)
# Experiment: fluorescence polarization competition; competitor 5FAM-TCF4(10-53) on full-length beta-catenin
# Target sequence in this assay (P35222 whole entry, the tested form may be a part, one chain of several): as the sequence (P35222 whole entry) above
row,IC50 [nM],Binder
1,181,B31
2,8,B32
3,8,B33

# Target: Bcat-Halo (UniProt P35222)
# Experiment: NanoBRET Abs IC50, Bcat-Halo/TCF4-Luc in HEK293 cells
# Sequence of Bcat-Halo (P35222 whole entry): as above
row,IC50 [µM],Binder
1,16.3,B17
2,12.9,B19
3,7.1,B20
4,5.1,B22
5,3.4,B23
6,2.7,B24
